Earlier results on one substance are cited in publication PMC6995525, “Structure of the PUB Domain from Ubiquitin Regulatory X Domain Protein 1 (UBXD1) and Its Interaction with the p97 AAA+ ATPase” (Biomolecules, 2019).

pKd: −log10 of the molar value.

This data set deals with p97 last 10 residues (Homo sapiens) (UniProt P55072).
Sequence of p97 last 10 residues (Homo sapiens) (P55072 whole entry, looked up): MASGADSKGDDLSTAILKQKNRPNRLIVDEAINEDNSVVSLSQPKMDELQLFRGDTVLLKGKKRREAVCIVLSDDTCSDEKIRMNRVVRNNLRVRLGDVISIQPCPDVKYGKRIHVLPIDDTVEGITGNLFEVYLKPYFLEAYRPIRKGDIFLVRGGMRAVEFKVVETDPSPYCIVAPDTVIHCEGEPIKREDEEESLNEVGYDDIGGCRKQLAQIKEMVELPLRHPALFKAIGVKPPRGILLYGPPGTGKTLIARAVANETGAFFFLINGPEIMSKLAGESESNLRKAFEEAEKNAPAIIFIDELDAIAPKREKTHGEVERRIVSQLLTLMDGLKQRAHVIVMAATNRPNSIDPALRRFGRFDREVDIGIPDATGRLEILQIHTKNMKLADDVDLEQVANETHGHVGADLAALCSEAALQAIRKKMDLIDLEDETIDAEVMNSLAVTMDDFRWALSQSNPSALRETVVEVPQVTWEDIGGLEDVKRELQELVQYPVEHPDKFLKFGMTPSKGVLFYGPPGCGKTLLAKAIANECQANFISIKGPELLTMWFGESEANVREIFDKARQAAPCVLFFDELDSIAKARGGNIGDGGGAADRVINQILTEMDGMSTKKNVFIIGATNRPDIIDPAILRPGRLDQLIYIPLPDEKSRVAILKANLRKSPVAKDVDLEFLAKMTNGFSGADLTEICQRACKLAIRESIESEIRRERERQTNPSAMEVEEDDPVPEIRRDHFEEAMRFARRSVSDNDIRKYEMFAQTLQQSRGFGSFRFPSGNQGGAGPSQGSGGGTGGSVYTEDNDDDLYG

Sequence of UBXD1 PUB (Q9BZV1 172-247): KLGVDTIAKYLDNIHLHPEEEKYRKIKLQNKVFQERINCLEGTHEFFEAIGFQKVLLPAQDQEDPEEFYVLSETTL

Regarding UBXD1 PUB (from UniProt Q9BZV1), the pKd was 4.92.
